Laboratory results reported in publication PMC8062530 (2021).

Experiments:
Assay in all cases: BLI
Siglec-14 Fc-fusion = biological target: T1, Siglec-14 Fc-fusion (UniProt Q08ET2 17-358)
T1 chain: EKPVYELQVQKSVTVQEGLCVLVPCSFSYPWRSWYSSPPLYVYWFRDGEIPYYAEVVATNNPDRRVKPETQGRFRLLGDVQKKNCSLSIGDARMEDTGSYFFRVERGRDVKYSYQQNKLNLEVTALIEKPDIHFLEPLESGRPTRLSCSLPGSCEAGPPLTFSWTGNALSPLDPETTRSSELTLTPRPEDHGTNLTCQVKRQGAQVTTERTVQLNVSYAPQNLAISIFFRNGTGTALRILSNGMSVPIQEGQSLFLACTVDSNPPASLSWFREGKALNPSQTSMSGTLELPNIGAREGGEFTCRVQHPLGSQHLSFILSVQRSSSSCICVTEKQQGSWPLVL

Siglec-10 Fc-fusion = biological target: T2, Siglec-10 Fc-fusion (UniProt Q96LC7 17-550)
T2 chain: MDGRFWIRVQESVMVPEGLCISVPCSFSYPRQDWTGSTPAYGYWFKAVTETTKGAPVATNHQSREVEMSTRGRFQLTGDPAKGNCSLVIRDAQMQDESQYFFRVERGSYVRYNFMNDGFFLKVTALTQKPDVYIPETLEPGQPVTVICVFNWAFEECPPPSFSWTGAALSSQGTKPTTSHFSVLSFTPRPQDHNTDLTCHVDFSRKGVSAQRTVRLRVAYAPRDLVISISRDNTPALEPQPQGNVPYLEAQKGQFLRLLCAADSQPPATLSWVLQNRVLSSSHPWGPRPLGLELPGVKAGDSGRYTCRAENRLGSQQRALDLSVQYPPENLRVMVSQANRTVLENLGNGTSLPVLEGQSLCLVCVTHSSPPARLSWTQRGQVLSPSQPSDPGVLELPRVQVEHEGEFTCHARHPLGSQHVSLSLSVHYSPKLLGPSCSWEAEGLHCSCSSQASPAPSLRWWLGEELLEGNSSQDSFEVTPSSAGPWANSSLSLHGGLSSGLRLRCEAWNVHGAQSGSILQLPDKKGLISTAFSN

Siglec-9 Fc-fusion = Siglec-9 Fc-fusion (UniProt Q9Y336 18-348)
Chain of Siglec-9 Fc-fusion (Q9Y336 18-348): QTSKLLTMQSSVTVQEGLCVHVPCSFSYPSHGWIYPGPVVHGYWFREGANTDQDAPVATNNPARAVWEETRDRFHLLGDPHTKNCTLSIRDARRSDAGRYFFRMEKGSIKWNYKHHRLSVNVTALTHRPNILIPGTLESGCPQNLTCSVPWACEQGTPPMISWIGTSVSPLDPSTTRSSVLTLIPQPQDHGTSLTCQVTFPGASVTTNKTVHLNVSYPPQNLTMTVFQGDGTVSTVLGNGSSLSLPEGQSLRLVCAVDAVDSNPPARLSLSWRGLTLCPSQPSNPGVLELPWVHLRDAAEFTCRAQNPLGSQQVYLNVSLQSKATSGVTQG

Kd (Siglec-14 Fc-fusion): 1100 nM | Kd (Siglec-10 Fc-fusion): 760 nM | Kd (Siglec-9 Fc-fusion): 4200 nM
B1: extracellular domain of PTGFRN (aa 26-832) with a C-terminal histidine tag (domain or fragment)
chain: VPTATLVRVVGTELVIPCNVSDYDGPSEQNFDWSFSSLGSSFVELASTWEVGFPAQLYQERLQRGEILLRRTANDAVELHIKNVQPSDQGHYKCSTPSTDATVQGNYEDTVQVKVLADSLHVGPSARPPPSLSLREGEPFELRCTAASASPLHTHLALLWEVHRGPARRSVLALTHEGRFHPGLGYEQRYHSGDVRLDTVGSDAYRLSVSRALSADQGSYRCIVSEWIAEQGNWQEIQEKAVEVATVVIQPSVLRAAVPKNVSVAEGKELDLTCNITTDRADDVRPEVTWSFSRMPDSTLPGSRVLARLDRDSLVHSSPHVALSHVDARSYHLLVRDVSKENSGYYYCHVSLWAPGHNRSWHKVAEAVSSPAGVGVTWLEPDYQVYLNASKVPGFADDPTELACRVVDTKSGEANVRFTVSWYYRMNRRSDNVVTSELLAVMDGDWTLKYGERSKQRAQDGDFIFSKEHTDTFNFRIQRTTEEDRGNYYCVVSAWTKQRNNSWVKSKDVFSKPVNIFWALEDSVLVVKARQPKPFFAAGNTFEMTCKVSSKNIKSPRYSVLIMAEKPVGDLSSPNETKYIISLDQDSVVKLENWTDASRVDGVVLEKVQEDEFRYRMYQTQVSDAGLYRCMVTAWSPVRGSLWREAATSLSNPIEIDFQTSGPIFNASVHSDTPSVIRGDLIKLFCIITVEGAALDPDDMAFDVSWFAVHSFGLDKAPVLLSSLDRKGIVTTSRRDWKSDLSLERVSVLEFLLQVHGSEDQDFGNYYCSVTPWVKSPTGSWQKEAEIHSKPVFITVKMDVLNAFKYP
